Measured values: article PMC3522573 (Oncogene, 2012)

Columns and labels:
Assay in all cases: two-hybrid
Gal4(DBD)-Neh6^ΔDSAPGS = biological target: T1, Gal4(DBD)-Neh6^ΔDSAPGS (mouse, UniProt Q60795 300-380, Δ373-378 (called ΔDSAPGS))
T1 sequence (looked up): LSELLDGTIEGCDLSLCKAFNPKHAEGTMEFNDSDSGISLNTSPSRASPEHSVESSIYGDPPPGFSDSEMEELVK

Gal4(DBD)-Neh6^ΔSDSGIS = biological target: T2, Gal4(DBD)-Neh6^ΔSDSGIS (mouse, UniProt Q60795 300-380, Δ333-338 (called ΔSDSGIS))
T2 sequence (looked up): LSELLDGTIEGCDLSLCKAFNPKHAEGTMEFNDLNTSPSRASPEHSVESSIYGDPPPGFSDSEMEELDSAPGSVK

Gal4(DBD)-Neh6 = biological target: T3, Gal4(DBD)-Neh6 (mouse, UniProt Q60795 300-380)
T3 sequence (looked up): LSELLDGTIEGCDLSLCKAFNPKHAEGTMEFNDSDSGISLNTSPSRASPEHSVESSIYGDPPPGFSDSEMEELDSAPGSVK

B1: Gal4(AD)-WD40 (domain or fragment, mouse, UniProt Q3ULA2 303-581, looked up)
chain: SKGVYCLQYDDQKIVSGLRDNTIKIWDKSTLECKRILTGHTGSVLCLQYDERVIITGSSDSTVRVWDVNAGEMLNTLIHHCEAVLHLRFNNGMMVTCSKDRSIAVWDMASPTDITLRRVLVGHRAAVNVVDFDDKYIVSASGDRTIKVWNTSTCEFVRTLNGHKRGIACLQYRDRLVVSGSSDNTIRLWDIECGACLRVLEGHEELVRCIRFDNKRIVSGAYDGKIKVWDLMAALDPRAPAGTLCLRTLVEHSGRVFRLQFDEFQIVSSSHDDTILIWD
fold increase in Gal4-driven luciferase activity with GSK-3β^Δ9 co-expressed (Gal4(DBD)-Neh6^ΔDSAPGS): 3.1 fold | fold increase in Gal4-driven luciferase activity over either fusion alone (Gal4(DBD)-Neh6^ΔSDSGIS): 1.5 fold | fold increase in Gal4-driven luciferase activity over either fusion alone (Gal4(DBD)-Neh6): ~3.2 fold | fold increase in Gal4-driven luciferase activity with GSK-3β^Δ9 co-expressed (Gal4(DBD)-Neh6): 4 fold
